Laboratory results from publication PMC12289034, “A highly potent human antibody neutralizing all serotypes of BK polyomavirus” (PLOS Pathogens, 2025).

B1: mAb 319C07 (antibody, V domains shown)
VH: QVQLQQWGAGLLKPSETLSLTCAVYRGSFSAYYWTWFRQPPGKGLEWIGEINHRGYTNYNPSLRGRVSISVDTSKKQFSLKLRSVNAADTAVYYCATLRSTSGWHDYFDYWGQGTLVTVSS
VL: EIVLTQSPGTLSLSPGERATLSCRASQSVSSSYLAWYQQTPGQAPRLLIYGASSRATGIPDRFSGSGSGTDFTLTISRLEPEDFVVYFCLQYGSSPLTFGPGTKVDIK
notes: heavy chain variable region of 319C07; human IgG1 heavy chain constant region (soluble IgG1 expression vector); kappa light chain of 319C07; also called antibody 319C07; AntiBKV; source: HEK293F, transient transfection, purified from supernatant (Protein G)

Legend:
[1] = target: BKPyV VP1 serotype Ib1 pentamer (aa 31-300) (BK polyomavirus) (UniProt P03088); test: crystal structure; VP1 Ib1 pentamer mixed with 319C07 Fab 1:1.7, complex isolated by SEC; hanging drop, 20 °C, 21% PEG1500, 0.1 M MIB pH 4.75; 1.96 Å
[2] = target: T1, BKPyV VP1 serotype III (BK polyomavirus, serotype III (isolate …, UniProt P14996, strain)); test: cell-based or functional assay
[3] = target: T2, BKPyV VP1 serotype II pentamer (aa 31-300) (BK polyomavirus serotype II, isolate …, UniProt A1IHZ0, strain); test: cell-based or functional assay
[4] = target: T3, BKPyV VP1 serotype IVc2 pentamer (aa 31-300) (BK polyomavirus serotype IVc2, isolate …, UniProt B6VQF5, strain); test: cell-based or functional assay
[5] = target: T1, BKPyV VP1 serotype III; test: ELISA; VP1 coated on the plate (1 µg/ml, 4 °C over weekend), blocked with 5% skim milk; antibody dilutions in PBS with 0.5% skim milk 1 h; HRP goat anti-human IgG; apparent EC50, three-parameter fit; settings: both partners purified
[6] = target: T2, BKPyV VP1 serotype II pentamer (aa …); test: as above; settings: both partners purified
[7] = target: T3, BKPyV VP1 serotype IVc2 pentamer (aa …); test: as above; settings: both partners purified

| Molecule | stoichiometry N [1] | IC50 of neutralisation of BKPyV serotype III pseudovirus (luciferase in HEK293TT cells, 72 h) [2] [nM] | IC50 of neutralisation of BKPyV serotype II pseudovirus (luciferase in HEK293TT cells, 72 h) [3] [nM] | IC50 of neutralisation of BKPyV serotype IV pseudovirus (luciferase in HEK293TT cells, 72 h) [4] [nM] | EC50 [5] [nM] | EC50 [6] [nM] | EC50 [7] [nM] |
| --- | --- | --- | --- | --- | --- | --- | --- |
| BKPyV VP1 serotype Ib1 pentamer (aa 31-300) (from UniProt P03088 31-300) (domain or fragment) | 5 | – | – | – | – | – | – |
| B1 | – | 0.0295 | 0.00035 | 0.00088 | 0.06 | 0.06 | 0.06 |
